Substitutions are numbered along the chain they refer to. Names may count otherwise.
B1: Sec22(184-214), truncated TA substrate with N-terminal 6xHis tag (domain or fragment)
chain: KINFDLLISQYAPIVIVAFFFVFLFWWIFLK
B2: Get3(D57N) (native, full-length S. cerevisiae Get3, ATP hydrolysis mutant) (natural protein)
chain: MDLTVEPNLHSLITSTTHKWIFVGGKGGVGKTTSSCSIAIQMALSQPNKQFLLISTNPAHNLSDAFGEKFGKDARKVTGMNNLSCMEIDPSAALKDMNDMAVSRANNNGSDGQGDDLGSLLQGGALADLTGSIPGIDEALSFMEVMKHIKRQEQGEGETFDTVIFDTAPTGHTLRFLQLPNTLSKLLEKFGEITNKLGPMLNSFMGAGNVDISGKLNELKANVETIRQQFTDPDLTTFVCVCISEFLSLYETERLIQELISYDMDVNSIIVNQLLFAENDQEHNCKRCQARWKMQKKYLDQIDELYEDFHVVKMPLCAGEIRGLNNLTKFSQFLNKEYNPITDGKVIYELEDKE
B3: 6xHis-tagged Get3(D57N) (natural protein)
chain: B2 chain
B4: Get3 (S. cerevisiae, wild-type) co-expressed with 6xHis-Pep12(262-288) (natural protein)
chain: B2 chain with N57D
B5: Get3 (S. cerevisiae, full-length, wild-type) (natural protein)
chain: B2 chain with N57D
B6: Pep12(262-288), truncated TA substrate with N-terminal 6xHis tag (domain or fragment)
chain: KRTSRWRVYLLIVLLVMLLFIFLIMKL

Legend:
[1] = target: B2; assay: crystal structure
SEC-MALS [2] = target: the molecule itself; assay: SEC-MALS
SEC-MALS [3] = target: the molecule itself; assay: SEC-MALS; remark: listed apart in the source
[4] = target: the molecule itself; assay: sucrose gradient sedimentation
[5] = target: B4; assay: SEC-MALS

Binder: B1
- binding result [1]: binds

Binder: B2
- stoichiometry N (SEC-MALS [2]): 2

Binder: B3
- stoichiometry N (SEC-MALS [3]): 2

Binder: B4
- stoichiometry N (SEC-MALS [2]): 4

Binder: B5
- stoichiometry N [4]: 2

Binder: B6
- binding result [5]: binds
- binding result [1]: binds

— publication PMC4413028 (Science (New York, N.Y.), 2015)
